Data taken from the supplement of paper PMC7877785.
± gives the uncertainty stated by the source.

Assay: self-splicing fitness, log relative to wild type (ln ratio); higher = more splicing; Tetrahymena group I intron in knt gene, E. coli kanamycin selection, DiMSum; sequences stand for … in CUCUCU…GGAGGGAAAAGUUAUCAGGCAUGCACCUGGUAGCUAGUCUUUAAACCAAUAGAUUGCAUCGGUUUAAAAGGCAAGACCGUCAAAUUGCGGGAAAGGGGUCAACAGCCGUUCAGUACCAAGUCUCAGGGGAAACUUUGAGAUGGCCUUGCAAAGGGUAUGGUAAUAAGCUGACGGACAUGGUCCUAACCACGCAGCCAAGUCCUAAGUCAACAGAUCUUCUGUUGAUAUGGAUGCAGUUCACAGACUAAAUGUCGGUCGGGGAAGAUGUAUUCUUCUCAUAAGAUAUAGUCGGACCUCUCCUUAAUGGGAGCUAGCGGAUGAAGUGAUGCAACACUGGAGCCGCUGGGAACUAAUUUGUAUGCGAAAGUAUAUUGAUUAGUUUUGGAGUACUCGUGGUCG
Procedure, shortened: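 A randomised library covering all eight P1ex-region intron nucleotides was built with the intron in the knt kanamycin-resistance gene on pET-22b(+) and held in E. coli BL21(DE3). Cells were grown overnight at 37°C or 30°C on LB agar, with or without 25 μg/mL kanamycin, plus 100 μg/mL carbenicillin, 50 μM IPTG and 0.2% rhamnose, and pooled colonies were amplicon-sequenced on an Illumina HiSeq 2500. DiMSum fitness is the error-weighted combination of wild-type-normalised replicate fold changes, kanamycin versus none.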

## CUAGAGCAAUAUUACGGCAA
30 °C
  self-splicing fitness (ln): -3.09 ± 0.22
37 °C
  self-splicing fitness (ln): -2.96 ± 0.34

## GAACAGCAAUAUUACGAAGU
30 °C
  self-splicing fitness (ln): -2.04 ± 0.12
37 °C
  self-splicing fitness (ln): -0.944 ± 0.15

## AGGUAGCAAUAUUACGAUGC
30 °C
  self-splicing fitness (ln): -1.62 ± 0.017
37 °C
  self-splicing fitness (ln): -0.828 ± 0.035

## GUGCAGCAAUAUUACGUUCG
30 °C
  self-splicing fitness (ln): -1.52 ± 0.09
37 °C
  self-splicing fitness (ln): -0.675 ± 0.14

## UAUGAGCAAUAUUACGGCAC
30 °C
  self-splicing fitness (ln): -2.09 ± 0.28

## CUGUAGCAAUAUUACGGCUG
30 °C
  self-splicing fitness (ln): -0.442 ± 0.099
37 °C
  self-splicing fitness (ln): -0.0988 ± 0.13

## UGAGAGCAAUAUUACGAGUG
30 °C
  self-splicing fitness (ln): -4.04 ± 0.29
37 °C
  self-splicing fitness (ln): -2.93 ± 0.26

## GUAGAGCAAUAUUACGCAGA
37 °C
  self-splicing fitness (ln): -1.92 ± 0.32

## GCACAGCAAUAUUACGACAG
30 °C
  self-splicing fitness (ln): -2.97 ± 0.25
37 °C
  self-splicing fitness (ln): -1.8 ± 0.23

## CCCUAGCAAUAUUACGAGGA
30 °C
  self-splicing fitness (ln): -1.66 ± 0.074
37 °C
  self-splicing fitness (ln): -0.53 ± 0.075

## ACUCAGCAAUAUUACGUGGG
30 °C
  self-splicing fitness (ln): -3.7 ± 0.18
37 °C
  self-splicing fitness (ln): -2.9 ± 0.2

## AUUCAGCAAUAUUACGAAGA
30 °C
  self-splicing fitness (ln): -0.761 ± 0.13
37 °C
  self-splicing fitness (ln): -0.747 ± 0.12

## UUUGAGCAAUAUUACGCAUU
30 °C
  self-splicing fitness (ln): -2.65 ± 0.27
37 °C
  self-splicing fitness (ln): -1.09 ± 0.2

## AGAUAGCAAUAUUACGAAUA
30 °C
  self-splicing fitness (ln): -2.76 ± 0.49
37 °C
  self-splicing fitness (ln): -2.16 ± 0.48

## UCAAAGCAAUAUUACGUUGU
30 °C
  self-splicing fitness (ln): -3.4 ± 0.13
37 °C
  self-splicing fitness (ln): -2.02 ± 0.12

## UCGCAGCAAUAUUACGGCCA
30 °C
  self-splicing fitness (ln): -0.107 ± 0.091
37 °C
  self-splicing fitness (ln): 0.246 ± 0.11

## GCGCAGCAAUAUUACGGCCC
30 °C
  self-splicing fitness (ln): -1.21 ± 0.14
37 °C
  self-splicing fitness (ln): 0.349 ± 0.24

## GCCUAGCAAUAUUACGUUUA
30 °C
  self-splicing fitness (ln): -2.34 ± 0.18
37 °C
  self-splicing fitness (ln): -1.7 ± 0.14

## AGCUAGCAAUAUUACGGACA
30 °C
  self-splicing fitness (ln): -1.06 ± 0.12
37 °C
  self-splicing fitness (ln): 0.0203 ± 0.15

## GGUGAGCAAUAUUACGAUAA
30 °C
  self-splicing fitness (ln): -1.22 ± 0.47

## CGAUAGCAAUAUUACGGCGU
30 °C
  self-splicing fitness (ln): -0.866 ± 0.085
37 °C
  self-splicing fitness (ln): 0.51 ± 0.12

## CCUUAGCAAUAUUACGAUGC
30 °C
  self-splicing fitness (ln): -4.15 ± 0.27
37 °C
  self-splicing fitness (ln): -2.62 ± 0.17

## UACCAGCAAUAUUACGAGCC
30 °C
  self-splicing fitness (ln): -4.51 ± 0.33
37 °C
  self-splicing fitness (ln): -2.07 ± 0.32

## UGCUAGCAAUAUUACGUCCC
30 °C
  self-splicing fitness (ln): -3.34 ± 0.18
37 °C
  self-splicing fitness (ln): -0.521 ± 0.12

## CCGAAGCAAUAUUACGACGA
30 °C
  self-splicing fitness (ln): -1.44 ± 0.12
37 °C
  self-splicing fitness (ln): -0.711 ± 0.13

## GAUUAGCAAUAUUACGGCGC
30 °C
  self-splicing fitness (ln): 0.24 ± 0.072
37 °C
  self-splicing fitness (ln): 0.233 ± 0.084

## GGGGAGCAAUAUUACGGCGA
30 °C
  self-splicing fitness (ln): -2.4 ± 0.26
37 °C
  self-splicing fitness (ln): -1.81 ± 0.24

## UGCUAGCAAUAUUACGACAC
30 °C
  self-splicing fitness (ln): -3.83 ± 0.22
37 °C
  self-splicing fitness (ln): -2.11 ± 0.16

## AGAUAGCAAUAUUACGGCUA
30 °C
  self-splicing fitness (ln): 0.0313 ± 0.1
37 °C
  self-splicing fitness (ln): 0.162 ± 0.098

## AAUUAGCAAUAUUACGCGGU
30 °C
  self-splicing fitness (ln): -3.63 ± 0.21
37 °C
  self-splicing fitness (ln): -1.55 ± 0.21

## CUCUAGCAAUAUUACGCCGU
30 °C
  self-splicing fitness (ln): -2.12 ± 0.27
37 °C
  self-splicing fitness (ln): -3.98 ± 0.39

## GACAAGCAAUAUUACGAGGA
30 °C
  self-splicing fitness (ln): -3.16 ± 0.21
37 °C
  self-splicing fitness (ln): -2.42 ± 0.14

## UUCUAGCAAUAUUACGCUGC
37 °C
  self-splicing fitness (ln): -2.1 ± 0.38

## CGGUAGCAAUAUUACGAUAA
30 °C
  self-splicing fitness (ln): -2.55 ± 0.21
37 °C
  self-splicing fitness (ln): -1.61 ± 0.24

## GGCAAGCAAUAUUACGGCAU
30 °C
  self-splicing fitness (ln): -0.207 ± 0.043
37 °C
  self-splicing fitness (ln): 0.531 ± 0.06

## GCCCAGCAAUAUUACGCGCA
30 °C
  self-splicing fitness (ln): -1.44 ± 0.11
37 °C
  self-splicing fitness (ln): -0.0956 ± 0.1

## AUCAAGCAAUAUUACGGUCC
30 °C
  self-splicing fitness (ln): -1.55 ± 0.13
37 °C
  self-splicing fitness (ln): -1.75 ± 0.17

## GCGCAGCAAUAUUACGUAAG
30 °C
  self-splicing fitness (ln): -0.982 ± 0.066
37 °C
  self-splicing fitness (ln): -0.943 ± 0.1

## GUAGAGCAAUAUUACGACAA
30 °C
  self-splicing fitness (ln): 0.152 ± 0.14
37 °C
  self-splicing fitness (ln): -0.0812 ± 0.17
